Reference: patent US20040151715A1 (SCHERING, published 2004)
Changes are numbered by the printed parent chain. Names and notes keep the numbering of the source.

Tests used:
[1] = biological target: T1, human ADAM33 catalytic domain (human, UniProt Q9BZ11 204-409); assay: co-purification during chromatography; heterodimer not disrupted by APMA and/or detergents
T1 construct: Expressed in Drosophila S2 cells as pre/pro/cat with a C-terminal Ser-Gly-His6 tag and processed at RGRR203/EARR; also called CAT domain; protease domain
T1 sequence: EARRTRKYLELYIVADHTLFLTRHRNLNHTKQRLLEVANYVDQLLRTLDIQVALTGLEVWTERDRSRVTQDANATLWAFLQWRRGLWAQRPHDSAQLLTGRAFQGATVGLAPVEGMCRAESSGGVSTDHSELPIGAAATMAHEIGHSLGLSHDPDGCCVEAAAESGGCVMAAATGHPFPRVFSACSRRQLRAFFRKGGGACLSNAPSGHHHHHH

[2] = biological target: T1, human ADAM33 catalytic domain; assay: HPLC assay of KL-1 peptide (100 µM) cleavage by ADAM33cat (80 nM), TIMP pre-incubated 1 h at RT; Morrison tight-binding fit (Ki app)
Procedure: (§1) The inhibition dissociation constants (Kᵢ) for inhibitors were determined as follows: an HPLC assay was performed in the presence or absence of inhibitors for 2 h at RT using ADAM33cat (80 nM) and KL-1 peptide substrate (100 μM). For testing tissue inhibitor of metalloproteinases (TIMPs), ADAM33 and human TIMPs were pre-incubated for 1 h at RT. Serial dilutions of TIMPs or synthetic inhibitors were tested starting at 4 μM (TIMP-2, -3, 4), 2 μM (TIMP-1, IK682), 20 μM (Marimastat), or 200 μM (Immunex compound 1: N-{DL-[2-(hydroxyamino-carbonyl)methyl]4-methylpentanoyl}-L-3-(tertbutyl)glycyl-L-alanine,2-aminoethylamide). Initial velocities were calculated by dividing cleaved product over reaction time. The initial velocities were plotted as a function of inhibitor concentration. For tight binding inhibitors (IK682, TIMP-3), the apparent inhibitor dissociation constants (Kᵢ app values) were calculated by fitting the curve to the following modified Morrison's equation: […]
(§2) The cleavage of the KL-1 peptide by ADAM33 was used to evaluate the effect of different classes of protease inhibitors. Inhibition constants of several hydroxamate compounds, known to inhibit either ADAM17 [IK682, and the Immunex compound 1] or MMPs [Marimastat], were determined. […] Human TIMP-1, -2, -3 and -4, endogenous inhibitors of MMPs and ADAMs, were tested for inhibition of ADAM33 activity.

APP peptide (YEVHHQKLVF) = biological target: T2, APP peptide (YEVHHQKLVF)
T2 chain: YEVHHQKLVF

[3] = biological target: T3, KL-1 peptide (PPVAASSLRN)
T3 chain: PPVAASSLRN

[4] = biological target: T4, MCF substrate peptide (Ac-LPPVAASSLNRD-NH2)
T4 chain: LPPVAASSLNRD

[5] = biological target: T5, TRANCE peptide (VGSQHIRAEK)
T5 chain: VGSQHIRAEK

[6] = biological target: T6, human ADAM33 pro domain (wild type)
T6 chain: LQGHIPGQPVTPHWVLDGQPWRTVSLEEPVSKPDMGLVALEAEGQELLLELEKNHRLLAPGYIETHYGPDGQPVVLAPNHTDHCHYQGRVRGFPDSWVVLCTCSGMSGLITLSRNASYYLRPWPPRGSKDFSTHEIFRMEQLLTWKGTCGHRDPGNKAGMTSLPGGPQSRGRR

[7] = biological target: T7, insulin B chain peptide (HLVEALYLVC)
T7 chain: HLVEALYLVC

[8] = biological target: T1, human ADAM33 catalytic domain; assay: HPLC assay of KL-1 peptide (100 µM) cleavage by ADAM33cat (80 nM), TIMP pre-incubated 1 h at RT; competitive inhibition fit
Procedure: as §1, §2

B1: human ADAM33 pro domain C131A (other)
chain: T6 chain with C101A
notes: The whole pro/cat entry is named; The protein was processed at the pro-CAT junction, so only the part before EARR is the pro domain
- percent of protease domain associated with the pro domain [1]: > 80%

B2: human ADAM33 pro domain C131A/C179A (other)
chain: T6 chain with C101A, C149A
notes: as for B1
- percent of protease domain associated with the pro domain [1]: > 80%

B3: human ADAM33 pro domain C179A (other)
chain: T6 chain with C149A
notes: as for B1
- percent of protease domain associated with the pro domain [1]: > 80%

B4: human TIMP-3 (tissue inhibitor of metalloproteinases 3) (other, UniProt P35625 24-211, looked up)
chain: CTCSPSHPQDAFCNSDIVIRAKVVGKKLVKEGPFGTLVYTIKQMKMYRGFTKMPHVQYIHTEASESLCGLKLEVNKYQYLLTGRVYDGKMYTGLCNFVERWDQLTLSQRKGLNYRYHLGCNCKIKSCYYLPCFVTSKNECLWTDMLSNFGYPGYQSKHYACIRQKGGYCSWYRGWAPPDKSIINATDP
- Ki [2]: 64 nM

B5: human ADAM33 catalytic domain (protein)
chain: T1 sequence
- Km (APP peptide (YEVHHQKLVF)): 1000 ± 100 µM
- kcat (APP peptide (YEVHHQKLVF)): 0.2 ± 0.1 s⁻¹
- kcat/Km (APP peptide (YEVHHQKLVF)): (1.6±0.3)×10^2 M^-1 s^-1 (n=2)
- peptide cleavage (HPLC; site by MALDI-TOF MS) (APP peptide (YEVHHQKLVF)): ADAM33 cleaved the APP peptide at H * Q
- Km [3]: 3000 ± 100 µM
- kcat [3]: 0.7 ± 0.1 s⁻¹
- kcat/Km [3]: (2.6±0.5)×10^2 M^-1 s^-1 (n=3)
- peptide cleavage (HPLC; site by MALDI-TOF MS) [3]: ADAM33 cleaved the ... KL-1 peptide at A * S
- Km [4]: suggesting a Km value greater than the highest tested concentration (500 µM)
- catalytic efficiency (kcat/Km) [4]: 2.6±0.5)×10^2 M^-1 s^-1
- peptide cleavage (HPLC) [4]: The wild-type ADAM33 cleaved the peptide between the residues corresponding to Ala-190 and Ser-191
- peptide cleavage (HPLC; site by MALDI-TOF MS) [5]: ADAM33 cleaved the ... human TRANCE peptide at H * I
- catalytic efficiency of the pro/CAT complex on the MCF peptide, tested at 50 nM-1 µM [6]: comparable to that of the CAT domain
- peptide cleavage (HPLC; site by MALDI-TOF MS) [7]: ADAM33 cleaved the ... insulin B chain peptide at A * L

B6: single chain zymogen form of ADAM33 (R203T/R207S) (protein)
chain: LQGHIPGQPVTPHWVLDGQPWRTVSLEEPVSKPDMGLVALEAEGQELLLELEKNHRLLAPGYIETHYGPDGQPVVLAPNHTDHCHYQGRVRGFPDSWVVLCTCSGMSGLITLSRNASYYLRPWPPRGSKDFSTHEIFRMEQLLTWKGTCGHRDPGNKAGMTSLPGGPQSRGRTEARSTRKYLELYIVADHTLFLTRHRNLNHTKQRLLEVANYVDQLLRTLDIQVALTGLEVWTERDRSRVTQDANATLWAFLQWRRGLWAQRPHDSAQLLTGRAFQGATVGLAPVEGMCRAESSGGVSTDHSELPIGAAATMAHEIGHSLGLSHDPDGCCVEAAAESGGCVMAAATGHPFPRVFSACSRRQLRAFFRKGGGACLSNAP
- catalytic efficiency on the MCF peptide [4]: showed no significant difference to that of the CAT domain

B7: human TIMP-4 (tissue inhibitor of metalloproteinases 4) (other, UniProt Q99727 30-224, looked up)
chain: CSCAPAHPQQHICHSALVIRAKISSEKVVPASADPADTEKMLRYEIKQIKMFKGFEKVKDVQYIYTPFDSSLCGVKLEANSQKQYLLTGQVLSDGKVFIHLCNYIEPWEDLSLVQRESLNHHYHLNCGCQITTCYTVPCTISAPNECLWTDWLLERKLYGYQAQHYVCMKHVDGTCSWYRGHLPLRKEFVDIVQP
- Ki [8]: 223 nM
